Bridge positions count the residues as written; N and C are the ends. Peptide text beside a SMILES is read from it. * marks the point of attachment. Biotin = O=C1N[C@H]2[C@H](CS[C@H]2CCCCC(=O)*)N1
B1: recombinant soluble GPVI: soluble recombinant GPVI-Fc fusion protein (protein)
chain: QSGPLPKPSLQALPSSLVPLEKPVTLRCQGPPGVDLYRLEKLSSSRYQDQAVLFIPAMKRSLAGRYRCSYQNGSLWSLPSDQLELVATGVFAKPSLSAQPGPAVSSGGDVTLQCQTRYGFDQFALYKEGDPAPYKNPERWYRASFPIITVTAAHSGTYRCYSFSSRDPYLWSAPSDPLELVVTGTSVTPSRLPTEPPSPVAEFSEATAELTVSFTNEVFTTETSRSITASPKESDSPAGPARQYYTKGN
modifications: left off: a dimerising Fc or GST
notes: soluble recombinant GPVI-Fc fusion protein

Key:
[1] = biological target: laminin (Mus musculus, UniProt P02468+P02469+P19137); test: SPR: laminin binding to collagelin
[2] = system: 9O12.2 IgG; test: SPR: 9O12.2 IgG injected over immobilized biotin-collagelin; assay type: binding; conditions: 9O12.2 IgG 5 μg/ml, competitor 25 μg/ml
Protocol: A Biacore 2000 instrument (GE Healthcare Europe GmbH, Orsay, France) (Université Paris 7, Institut Jacques Monod, Paris, France) was used to characterize the binding properties of the synthesized peptides. Biotinylated peptides (˜20 RU) were covalently coupled to the surface of a SA-sensorchip.
Glycine-HCl (10 mM pH 2.5) was injected for 30 s at 20 μL·min-1 to regenerate the sensorchip between each sample. Sensorgrams were analyzed with the BIA evaluation version 3.1 software. Kinetic constants (kon, koff) were deduced from the analysis of association and dissociation rates at four different IgG concentrations ranging from 1.25 to 10 μg·mL^−1. The dissociation constant KD was calculated from KD=koff/kon. […] In some experiments, the peptide was reduced by DTT on the sensor chip before injection of the IgG. Competition experiments were performed by mixing the IgG with recombinant soluble GPVI (25 μg·mL^−1). Collagen binding to the peptide was analysed by injecting type I equine collagen (Collagen Horm, Nycomed. Germany) (200 μg·mL^−1 in EBS-EP buffer) onto the peptide-coated sensorchip.

[3] = system: type I equine fibrillar collagen (Horm); test: Solid phase assay on collagen-coated microtitration plates; assay type: binding; conditions: competitor mixed with collagelin, 50 and 20 μg/mL (3J24.2: 50 μg/mL)

Row | Molecule | Kd [1] [µM] | inhibition of 9O12.2 IgG binding to immobilized biotin-collagelin by competitor [2] | inhibition of biotin-collagelin binding to collagen by competitor [3]
1 | CSCC[C@@H]1NC(=O)[C@H](C(C)C)NC(=O)[C@H](CCCNC(=N)N)NC(=O)[C@@H]2CCCN2C(=O)CNC(=O)[C@@H](NC(=O)CNC(=O)[C@H](CO)NC(=O)CNC(=O)[C@H](CO)NC(=O)CCCC[C@@H]2SC[C@@H]3NC(=O)N[C@@H]32)CSSC[C@@H](C(N)=O)NC(=O)[C@@H]2CCCN2C(=O)CNC(=O)[C@H](CCC(=O)O)NC(=O)[C@H](CC(=O)O)NC(=O)[C@H](CC(=O)O)NC(=O)CNC(=O)[C@H](CC(C)C)NC(=O)[C@H](Cc2c[nH]cn2)NC(=O)[C@H](CC(C)C)NC(=O)CNC(=O)[C@H](Cc2c[nH]cn2)NC1=O [collagelin] (Biotin-SGSGCGPRVMHGLHLGDDEGPC-NH2; disulfide 5-22) | 18.3 |  | 
2 | B1 |  | completely inhibited | completely inhibited

Source: patent publication US8466258B2, “Polypeptides, cyclic polypeptides and pharmaceutical comprising thereof for non invasive specific imaging of fibrosis” (INSERM (Institut National de la Santé et de la Recherche …, priority 2008, dated 2013)
